Experimental findings from article PMC12262051 are described below.

The assay concerns the target JASPer protein (1-475) (Drosophila). The assay can be described thus: MST; label-free (Monolith NT.LabelFree); JASPer constant at 0.4 uM, reconstituted nucleosomes in a 16-step dilution series (0.5 nM up to 16 uM); 20 mM HEPES pH 7.5, 50 mM NaCl, 1 mM TCEP, 0.05% Tween 20; 24 C; fitted as specific binding with Hill slope.
“H3K36me2 mononucleosome (147 bp) (complex)” returned a Kd of 0.32 µM.
With “H3K36me3 mononucleosome (147 bp) (complex)”, the Kd turned out to be 0.6 µM.
Take “unmodified mononucleosome (147 bp, H3K36me0) (complex)”: the Kd was determined as 4 µM.

For orientation: Kd means the equilibrium constant for the complex coming apart. A lower Kd goes with tighter binding.
